Laboratory results from the supplement of paper PMC9112550, “Optimization of the antimicrobial peptide Bac7 by deep mutational scanning” (BMC Biology, 2022).

Tested on: Escherichia coli TOP10
Assay: shrunken log2 fold change of peptide-encoding DNA abundance (4.5 h post-induction vs induction); higher = less antimicrobial activity (less host growth inhibition)
Conditions: time post-induction: 4.5 h; library: site-saturation at positions 5, 18, 19, 20
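Also: peptides expressed intracellularly from a pBAD plasmid library in pooled LB shake-flask culture, induced with 0.3% L-arabinose, DNA abundance read by NGS, three biological replicates, DESeq2 with apeglm shrinkage.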

RRIRIRPPRLPRPRPRPDKAPRP
shrunken log2 fold change: -0.00957

RRIRIRPPRLPRPRPRPDKTPRP
shrunken log2 fold change: -0.0467

RRIRIRPPRLPRPRPRPDKWPRP
shrunken log2 fold change: -0.318

RRIRIRPPRLPRPRPRPDLHPRP
shrunken log2 fold change: 0.0268

RRIRIRPPRLPRPRPRPDMAPRP
shrunken log2 fold change: -0.0603

RRIRIRPPRLPRPRPRPDMHPRP
shrunken log2 fold change: -0.0689

RRIRIRPPRLPRPRPRPDNAPRP
shrunken log2 fold change: -0.717

RRIRIRPPRLPRPRPRPDNFPRP
shrunken log2 fold change: -0.0215

RRIRIRPPRLPRPRPRPDNGPRP
shrunken log2 fold change: -0.375

RRIRIRPPRLPRPRPRPDPCPRP
shrunken log2 fold change: -0.224

RRIRIRPPRLPRPRPRPDPWPRP
shrunken log2 fold change: 0.0621

RRIRIRPPRLPRPRPRPDQAPRP
shrunken log2 fold change: -0.002

RRIRIRPPRLPRPRPRPDQRPRP
shrunken log2 fold change: 0.0228

RRIRIRPPRLPRPRPRPDQWPRP
shrunken log2 fold change: 0.0363

RRIRIRPPRLPRPRPRPDRHPRP
shrunken log2 fold change: -0.504

RRIRIRPPRLPRPRPRPDRTPRP
shrunken log2 fold change: -0.0709

RRIRIRPPRLPRPRPRPDTEPRP
shrunken log2 fold change: -0.853

RRIRIRPPRLPRPRPRPDVCPRP
shrunken log2 fold change: -0.225

RRIRIRPPRLPRPRPRPDVNPRP
shrunken log2 fold change: 0.0617

RRIRIRPPRLPRPRPRPDVPPRP
shrunken log2 fold change: -0.372

RRIRIRPPRLPRPRPRPDVTPRP
shrunken log2 fold change: -0.0322

RRIRIRPPRLPRPRPRPDYMPRP
shrunken log2 fold change: -1.09

RRIRIRPPRLPRPRPRPEDAPRP
shrunken log2 fold change: -0.0131

RRIRIRPPRLPRPRPRPEFSPRP
shrunken log2 fold change: 0.00834

RRIRIRPPRLPRPRPRPEGLPRP
shrunken log2 fold change: -0.185

RRIRIRPPRLPRPRPRPEKAPRP
shrunken log2 fold change: -0.0795

RRIRIRPPRLPRPRPRPENDPRP
shrunken log2 fold change: -0.312

RRIRIRPPRLPRPRPRPENPPRP
shrunken log2 fold change: -0.695

RRIRIRPPRLPRPRPRPENRPRP
shrunken log2 fold change: -0.176

RRIRIRPPRLPRPRPRPEREPRP
shrunken log2 fold change: 0.0556

RRIRIRPPRLPRPRPRPERGPRP
shrunken log2 fold change: 0.183

RRIRIRPPRLPRPRPRPERKPRP
shrunken log2 fold change: 0.00827

RRIRIRPPRLPRPRPRPERVPRP
shrunken log2 fold change: 0.089

RRIRIRPPRLPRPRPRPERYPRP
shrunken log2 fold change: -0.175

RRIRIRPPRLPRPRPRPESQPRP
shrunken log2 fold change: 0.0553

RRIRIRPPRLPRPRPRPEVRPRP
shrunken log2 fold change: -0.0584

RRIRIRPPRLPRPRPRPEWYPRP
shrunken log2 fold change: -0.142

RRIRIRPPRLPRPRPRPEYGPRP
shrunken log2 fold change: -0.0842

RRIRIRPPRLPRPRPRPEYWPRP
shrunken log2 fold change: -0.0686

RRIRIRPPRLPRPRPRPFAWPRP
shrunken log2 fold change: 0.00684

RRIRIRPPRLPRPRPRPFCIPRP
shrunken log2 fold change: -0.581

RRIRIRPPRLPRPRPRPFCMPRP
shrunken log2 fold change: -0.4

RRIRIRPPRLPRPRPRPFDEPRP
shrunken log2 fold change: -0.288

RRIRIRPPRLPRPRPRPFDPPRP
shrunken log2 fold change: -0.438

RRIRIRPPRLPRPRPRPFDRPRP
shrunken log2 fold change: 4.11

RRIRIRPPRLPRPRPRPFEQPRP
shrunken log2 fold change: -0.0348

RRIRIRPPRLPRPRPRPFFVPRP
shrunken log2 fold change: -0.294

RRIRIRPPRLPRPRPRPFHVPRP
shrunken log2 fold change: -0.121

RRIRIRPPRLPRPRPRPFIHPRP
shrunken log2 fold change: -0.872

RRIRIRPPRLPRPRPRPFITPRP
shrunken log2 fold change: -0.626

RRIRIRPPRLPRPRPRPFKNPRP
shrunken log2 fold change: -0.188

RRIRIRPPRLPRPRPRPFKTPRP
shrunken log2 fold change: 0.0132

RRIRIRPPRLPRPRPRPFLNPRP
shrunken log2 fold change: -0.429

RRIRIRPPRLPRPRPRPFLRPRP
shrunken log2 fold change: -0.2

RRIRIRPPRLPRPRPRPFLVPRP
shrunken log2 fold change: -0.759

RRIRIRPPRLPRPRPRPFLYPRP
shrunken log2 fold change: -0.84

RRIRIRPPRLPRPRPRPFMIPRP
shrunken log2 fold change: -0.73

RRIRIRPPRLPRPRPRPFNNPRP
shrunken log2 fold change: -0.318

RRIRIRPPRLPRPRPRPFNYPRP
shrunken log2 fold change: -0.149

RRIRIRPPRLPRPRPRPFPEPRP
shrunken log2 fold change: -0.45

RRIRIRPPRLPRPRPRPFPKPRP
shrunken log2 fold change: -0.101

RRIRIRPPRLPRPRPRPFPWPRP
shrunken log2 fold change: -0.519

RRIRIRPPRLPRPRPRPFQFPRP
shrunken log2 fold change: -0.237

RRIRIRPPRLPRPRPRPFQLPRP
shrunken log2 fold change: 0.0333

RRIRIRPPRLPRPRPRPFRQPRP
shrunken log2 fold change: 0.0326

RRIRIRPPRLPRPRPRPFSAPRP
shrunken log2 fold change: -0.517

RRIRIRPPRLPRPRPRPFTRPRP
shrunken log2 fold change: 0.114

RRIRIRPPRLPRPRPRPFVNPRP
shrunken log2 fold change: -0.488

RRIRIRPPRLPRPRPRPFVRPRP
shrunken log2 fold change: -0.0158

RRIRIRPPRLPRPRPRPFWEPRP
shrunken log2 fold change: 0.366

RRIRIRPPRLPRPRPRPFWKPRP
shrunken log2 fold change: 0.0187

RRIRIRPPRLPRPRPRPFWVPRP
shrunken log2 fold change: -0.2

RRIRIRPPRLPRPRPRPFYNPRP
shrunken log2 fold change: -0.756

RRIRIRPPRLPRPRPRPFYVPRP
shrunken log2 fold change: -1.11

RRIRIRPPRLPRPRPRPGAAPRP
shrunken log2 fold change: 0.18
